Laboratory results taken from article PMC12442453, “An asymmetric tetrabody is a potent and efficacious agonist of the erythropoietin receptor in vitro and in vivo” (Protein Science : A Publication of the Protein Society, 2025).

Columns and labels:
[1] = biological target: T1, human EPOR ectodomain (ECD) fused to a human Fc domain (EPOR-Fc) (human, UniProt P19235); assay: ELISA; EPOR-Fc (human or mouse) immobilised by results and legends, Db-Fc or VL–VH protein in solution (single point and serial dilutions), 1 h room temperature, PBST, anti-Fc-HRP; apparent affinities; the methods name His-EPOR as the coated protein; conditions: both partners purified
T1 construct: erythropoietin receptor (EPOR), human, ectodomain; Results and legends name EPOR-Fc as the immobilised protein of the ELISA and BLI experiments; the methods describe His-EPOR instead; also called human EPOR-Fc
T1 sequence (P19235 25-250): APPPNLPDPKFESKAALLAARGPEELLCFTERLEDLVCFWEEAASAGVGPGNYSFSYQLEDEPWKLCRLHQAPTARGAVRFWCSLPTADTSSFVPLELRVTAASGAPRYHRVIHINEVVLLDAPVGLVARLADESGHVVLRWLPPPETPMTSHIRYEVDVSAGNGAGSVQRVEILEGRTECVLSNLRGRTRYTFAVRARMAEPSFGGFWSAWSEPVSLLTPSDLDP

[2] = biological target: T2, His-tagged ECD of CD131 (Homo sapiens (assumed), UniProt P32927); assay: ELISA; His-tagged ECDs of EPOR, CD131 or EPHB4 tested against Db-Fc protein; conditions: both partners purified
T2 construct: β-common cytokine receptor (β-CR, CD131), ectodomain; also called β-common cytokine receptor; β-CR
T2 sequence (P32927 17-443): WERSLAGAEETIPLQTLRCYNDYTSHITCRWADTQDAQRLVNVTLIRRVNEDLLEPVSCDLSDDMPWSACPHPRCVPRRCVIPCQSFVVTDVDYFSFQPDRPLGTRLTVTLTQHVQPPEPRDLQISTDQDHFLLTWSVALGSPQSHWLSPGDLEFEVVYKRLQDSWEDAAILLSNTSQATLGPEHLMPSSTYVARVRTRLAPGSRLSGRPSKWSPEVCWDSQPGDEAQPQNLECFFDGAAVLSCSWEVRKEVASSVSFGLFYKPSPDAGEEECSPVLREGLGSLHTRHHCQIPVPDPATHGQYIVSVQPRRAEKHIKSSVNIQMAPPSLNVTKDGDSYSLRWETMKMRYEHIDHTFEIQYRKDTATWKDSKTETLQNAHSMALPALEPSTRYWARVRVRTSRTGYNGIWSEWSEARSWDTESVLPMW

[3] = biological target: T3, His-tagged ECD of EPHB4 (Homo sapiens (assumed), UniProt P54760); assay: as above; conditions: both partners purified
T3 construct: receptor tyrosine kinase EPHB4, ectodomain
T3 sequence (P54760 16-539): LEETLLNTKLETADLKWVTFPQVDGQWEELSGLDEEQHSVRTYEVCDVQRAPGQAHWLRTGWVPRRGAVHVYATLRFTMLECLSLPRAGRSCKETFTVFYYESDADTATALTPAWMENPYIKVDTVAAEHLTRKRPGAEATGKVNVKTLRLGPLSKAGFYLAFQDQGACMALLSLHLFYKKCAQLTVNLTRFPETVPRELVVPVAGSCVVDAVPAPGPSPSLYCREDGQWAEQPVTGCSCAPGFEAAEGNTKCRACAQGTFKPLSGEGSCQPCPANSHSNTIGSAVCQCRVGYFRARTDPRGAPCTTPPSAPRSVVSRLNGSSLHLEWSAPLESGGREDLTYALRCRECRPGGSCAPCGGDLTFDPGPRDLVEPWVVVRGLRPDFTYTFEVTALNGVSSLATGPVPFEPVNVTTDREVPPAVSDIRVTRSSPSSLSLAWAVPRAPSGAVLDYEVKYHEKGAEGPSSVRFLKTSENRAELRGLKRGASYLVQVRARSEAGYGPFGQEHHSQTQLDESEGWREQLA

[4] = biological target: T1, human EPOR ectodomain (ECD) fused to a …; assay: BLI; results and legends: EPOR-Fc immobilised, Db-Fc in solution, 600 s association, 600 s dissociation, global 1:1 fit; methods: Abs captured on anti-human Fc sensors, His-EPOR in solution in 3-fold dilutions from 100 nM, 25°C, PBS 0.05% Tween 20; conditions: both partners purified
[5] = biological target: human EPOR, endogenous on TF-1 cells (Homo sapiens (TF-1 cells), UniProt P19235); assay: cell-based or functional assay
Sequence of human EPOR, endogenous on TF-1 cells (P19235 25-508): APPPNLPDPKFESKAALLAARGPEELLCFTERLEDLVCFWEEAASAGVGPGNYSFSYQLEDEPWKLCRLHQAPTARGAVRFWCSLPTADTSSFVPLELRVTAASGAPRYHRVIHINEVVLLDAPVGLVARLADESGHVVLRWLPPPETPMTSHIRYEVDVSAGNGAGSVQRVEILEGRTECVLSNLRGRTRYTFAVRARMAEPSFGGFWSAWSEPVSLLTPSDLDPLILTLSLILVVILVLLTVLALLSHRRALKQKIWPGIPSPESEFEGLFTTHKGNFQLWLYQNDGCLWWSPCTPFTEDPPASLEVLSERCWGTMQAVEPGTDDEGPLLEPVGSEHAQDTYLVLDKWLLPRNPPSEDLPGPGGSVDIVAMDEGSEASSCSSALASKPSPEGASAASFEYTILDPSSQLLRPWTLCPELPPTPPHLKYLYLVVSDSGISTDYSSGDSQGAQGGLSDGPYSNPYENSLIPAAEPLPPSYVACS

B1: Db-Fc 1 (Fc fusion)
VH: EVQLVESGGGLVQPGGSLRLSCAASGFNLYSYYIHWVRQAPGKGLEWVASISPYYSYTYYADSVKGRFTISADTSKNTAYLQMNSLRAEDTAVYYCARHGYGAMDYWGQGTLVTVSS
VL: DIQMTQSPSSLSASVGDRVTITCRASQSVSSAVAWYQQKPGKAPKLLIYSASSLYSGVPSRFSGSRSGTDFTLTISSLQPEDFATYYCQQSSYSLITFGQGTKVEIK
notes: VL domain of clone 1 (human framework of the Db library); Gly5 linker between VL and VH; VH domain of clone 1; IMGT numbering, heavy chain; Diabody-Fc fusion (VL-Gly5-VH-Fc); Protein-A purified preparation: mainly the dimeric Db-Fc, with a minor earlier-eluting SEC peak (putative Tb-Fc2); also called Db 1; VL–VH 1; source: Expi293, transient expression, purified (rProtein-A); not shown: Fc, …
- EC50 [1]: 1.5 nM
- binding result [2]: no binding
- binding result [3]: no binding
- Kd [4]: 1.5 nM
- UT-7/Epo cell proliferation (ATP/luciferase luminescence), EC50 [5]: 0.2 nM

B2: Db-Fc 2 (Fc fusion)
VH: EVQLVESGGGLVQPGGSLRLSCAASGFNLSSYYIHWVRQAPGKGLEWVASISPYYSYTYYADSVKGRFTISADTSKNTAYLQMNSLRAEDTAVYYCARHSYAALDYWGQGTLVTVSS
VL: DIQMTQSPSSLSASVGDRVTITCRASQSVSSAVAWYQQKPGKAPKLLIYSASSLYSGVPSRFSGSRSGTDFTLTISSLQPEDFATYYCQQAYWPITFGQGTKVEIK
notes: VL domain of clone 2 (human framework of the Db library); Gly5 linker between VL and VH; VH domain of clone 2; Diabody-Fc fusion (VL-Gly5-VH-Fc); Protein-A purified preparation: mainly the dimeric Db-Fc, with a minor earlier-eluting SEC peak; also called Db 2; VL–VH 2; source: Expi293, transient expression, purified (rProtein-A); not shown: Fc, C-terminal, kept
- EC50 [1]: 0.6 nM
- binding result [2]: no binding
- binding result [3]: no binding
- Kd [4]: 5.1 nM
- UT-7/Epo cell proliferation (ATP/luciferase luminescence), EC50 [5]: 0.4 nM

B3: Db-Fc 1.2 (Fc fusion)
VH: EVQLVESGGGLVQPGGSLRLSCAASGFNLRSYYMHWVRQAPGKGLEWVASIAPYHGYTYYADSVKGRFTISADTSKNTAYLQMNSLRAEDTAVYYCARHGYGALDYWGQGTLVTVSS
VL: DIQMTQSPSSLSASVGDRVTITCRASQSVSSAVAWYQQKPGKAPKLLIYSASSLYSGVPSRFSGSRSGTDFTLTISSLQPEDFATYYCQQSSNFLITFGQGTKVEIK
notes: VL domain of variant 1.2; Gly5 linker between VL and VH; VH domain of variant 1.2; Diabody-Fc fusion; nearly homogeneous Db-Fc peak by SEC; In vivo used both as unfractionated mixture and as the Db-Fc fraction from preparative SEC; also called variant 1.2; Db-Fcmix 1.2; source: Expi293, transient expression, purified (rProtein-A); not shown: Fc, C-terminal, kept
- Kd [4]: 1.8 nM

B4: Db-Fc 1.3 (Fc fusion)
VH: EVQLVESGGGLVQPGGSLRLSCAASGFNLRSYYMHWVRQAPGKGLEWVASISPHYGYTYYADSVKGRFTISADTSKNTAYLQMNSLRAEDTAVYYCARHGYSAMDYWGQGTLVTVSS
VL: DIQMTQSPSSLSASVGDRVTITCRASQSVSSAVAWYQQKPGKAPKLLIYSASSLYSGVPSRFSGSRSGTDFTLTISSLQPEDFATYYCQQSSDSLFTFGQGTKVEIK
notes: VL domain of variant 1.3; derived from the library on Db 1.1 (PDB 9NWU); Gly5 linker between VL and VH; VH domain of variant 1.3; the fraction is named in the readout of each functional row; also called variant 1.3; VL–VH 1.3; source: Expi293, transient expression, purified (rProtein-A); fractions by preparative SEC; not shown: Fc, C-terminal, kept
- binding result [4]: binds

B5: Db-Fc 1.1 (Fc fusion)
VH: EVQLVESGGGLVQPGGSLRLSCAASGFNLRSYYMHWVRQAPGKGLEWVASISPYYSYTYYADSVKGRFTISADTSKNTAYLQMNSLRAEDTAVYYCARHGYGAMDYWGQGTLVTVSS
VL: DIQMTQSPSSLSASVGDRVTITCRASQSVSSAVAWYQQKPGKAPKLLIYSASSLYSGVPSRFSGSRSGTDFTLTISSLQPEDFATYYCQQSSYSLITFGQGTKVEIK
notes: VL domain of variant 1.1; Gly5 linker between VL and VH; VH domain of variant 1.1; Diabody-Fc fusion; >99% eluted as the Db-Fc form by SEC; Called Db-Fcmix 1.1 where not fractionated by preparative SEC; also called variant 1.1; Db-Fcmix 1.1; source: Expi293, transient expression, purified (rProtein-A); not shown: Fc, C-terminal, kept
- Kd [4]: 5 nM
